# In IntAct's records for PubMed 19703395:
# B1: Transposon Tn7 transposition protein TnsE (Escherichia coli), P05845 (parent)
# chain: MVRLATFNDNVQVVHIGHLFRNSGHKEWRIFVWFNPMQERKWTRFTHLPLLSRAKVVNSTTKQINKADRVIEFEASDLQRAKIIDFPNLSSFASVRNKDGAQSSFIYEAETPYSKTRYHIPQLELARSLFLINSYFCRSCLSSTALQQEFDVQYEVERDHLEIRILPSSSFPKGALEQSAVVQLLVWLFSDQDVMDSYESIFRHYQQNREIKNGVESWCFSFDPPPMQGWKLHVKGRSSNEDKDYLVEEIVGLEINAMLPSTTAISHASFQEKEAGDGSTQHIAVSTESVVDDEHLQLDDEETANIDTDTRVIEAEPTWISFSRPSRIEKSRRARKSSQTILEKEEATTSENSNLVSTDEPHLGGVLAAADVGGKQDATNYNSIFANRFAAFDELLSILKTKFACRVLFEETLVLPKVGRSRLHLCKDGSPRVIKAVGVQRNGSEFVLLEVDASDGVKMLSTKVLSGVDSETWRNDFEKIRRGVVKSSLNWPNSLFDQLYGQDGHRGVNHPKGLGELQVSREDMEGWAERVVREQFTH
# Variants of: B1
# Conditions: with dpo3b_ecoli dnaN
row,Variant,effect of a mutation on the interaction
1,MVRLATFNDNVQVVHIGHLFRNSGHKEWRIFVWFNPMQERKWTRFTHLPLLSRAKVVNSTTKQINKADRVIEFEASDLQRAKIIDFPNLSSFASVRNKDGAQSSFIYEAETPYSKTRYHIPALELARSLFLINSYFCRSCLSSTALQQEFDVQYEVERDHLEIRILPSSSFPKGALEQSAVVQLLVWLFSDQDVMDSYESIFRHYQQNREIKNGVESWCFSFDPPPMQGWKLHVKGRSSNEDKDYLVEEIVGLEINAMLPSTTAISHASFQEKEAGDGSTQHIAVSTESVVDDEHLQLDDEETANIDTDTRVIEAEPTWISFSRPSRIEKSRRARKSSQTILEKEEATTSENSNLVSTDEPHLGGVLAAADVGGKQDATNYNSIFANRFAAFDELLSILKTKFACRVLFEETLVLPKVGRSRLHLCKDGSPRVIKAVGVQRNGSEFVLLEVDASDGVKMLSTKVLSGVDSETWRNDFEKIRRGVVKSSLNWPNSLFDQLYGQDGHRGVNHPKGLGELQVSREDMEGWAERVVREQFTH [Q122A],decreasing interaction
2,MVRLATFNDNVQVVHIGHLFRNSGHKEWRIFVWFNPMQERKWTRFTHLPLLSRAKVVNSTTKQINKADRVIEFEASDLQRAKIIDFPNLSSFASVRNKDGAQSSFIYEAETPYSKTRYHIPQAELARSLFLINSYFCRSCLSSTALQQEFDVQYEVERDHLEIRILPSSSFPKGALEQSAVVQLLVWLFSDQDVMDSYESIFRHYQQNREIKNGVESWCFSFDPPPMQGWKLHVKGRSSNEDKDYLVEEIVGLEINAMLPSTTAISHASFQEKEAGDGSTQHIAVSTESVVDDEHLQLDDEETANIDTDTRVIEAEPTWISFSRPSRIEKSRRARKSSQTILEKEEATTSENSNLVSTDEPHLGGVLAAADVGGKQDATNYNSIFANRFAAFDELLSILKTKFACRVLFEETLVLPKVGRSRLHLCKDGSPRVIKAVGVQRNGSEFVLLEVDASDGVKMLSTKVLSGVDSETWRNDFEKIRRGVVKSSLNWPNSLFDQLYGQDGHRGVNHPKGLGELQVSREDMEGWAERVVREQFTH [L123A],decreasing interaction
3,MVRLATFNDNVQVVHIGHLFRNSGHKEWRIFVWFNPMQERKWTRFTHLPLLSRAKVVNSTTKQINKADRVIEFEASDLQRAKIIDFPNLSSFASVRNKDGAQSSFIYEAETPYSKTRYHIPQLEAARSLFLINSYFCRSCLSSTALQQEFDVQYEVERDHLEIRILPSSSFPKGALEQSAVVQLLVWLFSDQDVMDSYESIFRHYQQNREIKNGVESWCFSFDPPPMQGWKLHVKGRSSNEDKDYLVEEIVGLEINAMLPSTTAISHASFQEKEAGDGSTQHIAVSTESVVDDEHLQLDDEETANIDTDTRVIEAEPTWISFSRPSRIEKSRRARKSSQTILEKEEATTSENSNLVSTDEPHLGGVLAAADVGGKQDATNYNSIFANRFAAFDELLSILKTKFACRVLFEETLVLPKVGRSRLHLCKDGSPRVIKAVGVQRNGSEFVLLEVDASDGVKMLSTKVLSGVDSETWRNDFEKIRRGVVKSSLNWPNSLFDQLYGQDGHRGVNHPKGLGELQVSREDMEGWAERVVREQFTH [L125A],decreasing interaction
4,MVRLATFNDNVQVVHIGHLFRNSGHKEWRIFVWFNPMQERKWTRFTHLPLLSRAKVVNSTTKQINKADRVIEFEASDLQRAKIIDFPNLSSFASVRNKDGAQSSFIYEAETPYSKTRYHIPQLELARSAFLINSYFCRSCLSSTALQQEFDVQYEVERDHLEIRILPSSSFPKGALEQSAVVQLLVWLFSDQDVMDSYESIFRHYQQNREIKNGVESWCFSFDPPPMQGWKLHVKGRSSNEDKDYLVEEIVGLEINAMLPSTTAISHASFQEKEAGDGSTQHIAVSTESVVDDEHLQLDDEETANIDTDTRVIEAEPTWISFSRPSRIEKSRRARKSSQTILEKEEATTSENSNLVSTDEPHLGGVLAAADVGGKQDATNYNSIFANRFAAFDELLSILKTKFACRVLFEETLVLPKVGRSRLHLCKDGSPRVIKAVGVQRNGSEFVLLEVDASDGVKMLSTKVLSGVDSETWRNDFEKIRRGVVKSSLNWPNSLFDQLYGQDGHRGVNHPKGLGELQVSREDMEGWAERVVREQFTH [L129A],decreasing interaction
5,MVRLATFNDNVQVVHIGHLFRNSGHKEWRIFVWFNPMQERKWTRFTHLPLLSRAKVVNSTTKQINKADRVIEFEASDLQRAKIIDFPNLSSFASVRNKDGAQSSFIYEAETPYSKTRYHIPQLELARSLALINSYFCRSCLSSTALQQEFDVQYEVERDHLEIRILPSSSFPKGALEQSAVVQLLVWLFSDQDVMDSYESIFRHYQQNREIKNGVESWCFSFDPPPMQGWKLHVKGRSSNEDKDYLVEEIVGLEINAMLPSTTAISHASFQEKEAGDGSTQHIAVSTESVVDDEHLQLDDEETANIDTDTRVIEAEPTWISFSRPSRIEKSRRARKSSQTILEKEEATTSENSNLVSTDEPHLGGVLAAADVGGKQDATNYNSIFANRFAAFDELLSILKTKFACRVLFEETLVLPKVGRSRLHLCKDGSPRVIKAVGVQRNGSEFVLLEVDASDGVKMLSTKVLSGVDSETWRNDFEKIRRGVVKSSLNWPNSLFDQLYGQDGHRGVNHPKGLGELQVSREDMEGWAERVVREQFTH [F130A],decreasing interaction
6,MVRLATFNDNVQVVHIGHLFRNSGHKEWRIFVWFNPMQERKWTRFTHLPLLSRAKVVNSTTKQINKADRVIEFEASDLQRAKIIDFPNLSSFASVRNKDGAQSSFIYEAETPYSKTRYHIPQLELARSLFAINSYFCRSCLSSTALQQEFDVQYEVERDHLEIRILPSSSFPKGALEQSAVVQLLVWLFSDQDVMDSYESIFRHYQQNREIKNGVESWCFSFDPPPMQGWKLHVKGRSSNEDKDYLVEEIVGLEINAMLPSTTAISHASFQEKEAGDGSTQHIAVSTESVVDDEHLQLDDEETANIDTDTRVIEAEPTWISFSRPSRIEKSRRARKSSQTILEKEEATTSENSNLVSTDEPHLGGVLAAADVGGKQDATNYNSIFANRFAAFDELLSILKTKFACRVLFEETLVLPKVGRSRLHLCKDGSPRVIKAVGVQRNGSEFVLLEVDASDGVKMLSTKVLSGVDSETWRNDFEKIRRGVVKSSLNWPNSLFDQLYGQDGHRGVNHPKGLGELQVSREDMEGWAERVVREQFTH [L131A],decreasing interaction
